According to patent US20040213780, “Methods and compositions for treating polyglutamine expansion-associated disease” (published 2004):

Target: Sp1 (UniProt P08047 P08047:2-785)
Test: EMSA; 5 mM DTT, 1 ug/ml poly(dI-dC); binding reduced 20% by GST-huntingtin Q20 and 70% by Q51; competed by 50-fold unlabelled probe
Conditions: tags: purified Sp1, Promega; label: labeled (autoradiography)
Procedure: Chem. 273:26218, 1998) except that 5 mM DTT and 1 μg/ml poly(dI-dC) were used. GST-huntingtin fusions (0.2 μg/ul) were a gift of E. Wanker and were purified as described (J. S. Steffan et al., Nature 413:739, 2001). An approximate 1:1 ratio of purified proteins was used. Coomassie blue staining and Western blotting were used to examine the purified proteins.
Binding of Sp1 to a labeled consensus Sp1 site is shown in lane 1, and competition with a 50-fold molar excess of unlabelled probe is shown in lane 2 (plus sign). Incubation of Sp1 in the presence of GST-huntingtin with 20 glutamines (Qs) led to a 20% reduction in Sp1 binding (lane 3), whereas huntingtin with 51 Qs inhibited Sp1 binding by 70% (lane 4). The Sp1/DNA complex was identified with anti-Sp1 and is indicated by an arrow in all panels. […] Primary striatal cells were transfected with wild-type (HttQ 17) or mutant (HttQ75) huntingtin. EMSA was performed with a labeled D2 promoter fragment containing a Sp1 binding site. […] In competition experiments, a 100-fold molar excess of double-stranded nonradioactive oligonucleotide was used (lanes 2 and 4). […] EMSA was performed with nuclear extracts isolated from presymptomatic grade 1 and grade 4 HD brain tissue as described above herein. […] Competition experiments were performed as in (FIG. 2B) (lane 2). […] EMSA was performed as in FIG. 2C. […]

Chain of Sp1 (P08047 2-785, one chain of several): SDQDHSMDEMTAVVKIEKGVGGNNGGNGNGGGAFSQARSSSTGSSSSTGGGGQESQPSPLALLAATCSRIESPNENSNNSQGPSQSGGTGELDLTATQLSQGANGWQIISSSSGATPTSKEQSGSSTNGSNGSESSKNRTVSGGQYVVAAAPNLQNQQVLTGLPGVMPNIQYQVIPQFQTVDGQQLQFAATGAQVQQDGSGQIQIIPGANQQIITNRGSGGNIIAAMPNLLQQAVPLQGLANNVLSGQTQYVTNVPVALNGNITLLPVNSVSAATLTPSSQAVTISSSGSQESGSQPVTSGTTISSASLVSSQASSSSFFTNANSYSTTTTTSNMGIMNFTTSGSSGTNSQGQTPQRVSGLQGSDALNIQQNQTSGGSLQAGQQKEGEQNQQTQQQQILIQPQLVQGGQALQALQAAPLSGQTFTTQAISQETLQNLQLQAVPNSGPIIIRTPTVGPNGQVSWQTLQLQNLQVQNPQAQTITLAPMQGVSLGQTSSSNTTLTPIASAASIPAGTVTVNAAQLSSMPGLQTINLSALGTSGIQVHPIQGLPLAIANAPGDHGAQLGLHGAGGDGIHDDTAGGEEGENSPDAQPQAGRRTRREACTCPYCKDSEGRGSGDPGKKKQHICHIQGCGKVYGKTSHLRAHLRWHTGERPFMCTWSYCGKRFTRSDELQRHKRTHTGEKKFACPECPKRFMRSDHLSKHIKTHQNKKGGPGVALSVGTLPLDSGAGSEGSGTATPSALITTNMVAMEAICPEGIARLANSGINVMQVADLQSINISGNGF

B1: Sp1 consensus site probe (dsDNA)
DNA 1: ATTCGATCGGGGCGGGGCGAGC
DNA 2: GCTCGCCCCGCCCCGATCGAAT
  binding result: binds
